Data on five sequences can be found in the supplement of paper PMC5998384.

For data set [1], the system named is HeLa Kyoto. Put plainly: solubility in G1/S (NP-40 vs SDS abundance) (log2 ratio); higher = more soluble. The following applies: cell cycle stage: G1/S.
Data set [2] has as its system HeLa Kyoto. Nature of the data set: melting temperature (median over replicates), in situ; higher = more thermally stable.
Data set [3] concerns HeLa Kyoto. Nature of the data set: solubility change mitosis vs G1/S (difference of NP-40 vs SDS log2 ratios) (log2 ratio difference); higher = more soluble in mitosis.
Data set [4] has as its system HeLa Kyoto. Put plainly: thermal stability score vs G1/S (z-score of summed log2 fold changes over temperatures); higher = more thermally stable than in G1/S.
Setting [5] is: cell cycle stage: early G1 (4.5 h after nocodazole release).
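Throughout, for melting temperature (median over replicates), in situ: HeLa Kyoto cells synchronized by double thymidine or nocodazole block, proteins quantified by TMT10plex mass spectrometry, three independent biological replicates.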
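Throughout, for solubility change mitosis vs G1/S (difference of NP-40 vs SDS log2 ratios): synchronized HeLa Kyoto cells (double thymidine block for G1/S, nocodazole release for mitosis), protein amounts in NP-40 versus SDS lysates quantified by mass spectrometry, three biological replicates.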
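Throughout, for solubility in G1/S (NP-40 vs SDS abundance): HeLa Kyoto cells arrested at G1/S by double thymidine block, proteins quantified by TMT10plex mass spectrometry in mild NP-40 versus SDS extracts, three biological replicates.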
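Throughout, for thermal stability score vs G1/S (z-score of summed log2 fold changes over temperatures): synchronized HeLa Kyoto cells, proteins quantified by TMT10plex mass spectrometry, three biological replicates, mitosis taken 0.5 h after nocodazole release, G1/S directly after double thymidine block.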

“MPPPRTREGRDRRDHHRAPSEEEALEKWDWNCPETRRLLEDAFFREEDYIRQGSEECQKFWTFFERLQRFQNLKTSRKEEKDPGQPKHSIPALADLPRTYDPRYRINLSVLGPATRGSQGLGRHLPAERVAEFRRALLHYLDFGQKQAFGRLAKLQRERAALPIAQYGNRILQTLKEHQVVVVAGDTGCGKSTQVPQYLLAAGFSHVACTQPRRIACISLAKRVGFESLSQYGSQVGYQIRFESTRSAATKIVFLTVGLLLRQIQREPSLPQYEVLIVDEVHERHLHNDFLLGVLQRLLPTRPDLKVILMSATINISLFSSYFSNAPVVQVPGRLFPITVVYQPQEAEPTTSKSEKLDPRPFLRVLESIDHKYPPEERGDLLVFLSGMAEISAVLEAAQTYASHTQRWVVLPLHSALSVADQDKVFDVAPPGVRKCILSTNIAETSVTIDGIRFVVDSGKVKEMSYDPQAKLQRLQEFWISQASAEQRKGRAGRTGPGVCFRLYAESDYDAFAPYPVPEIRRVALDSLVLQMKSMSVGDPRTFPFIEPPPPASLETAILYLRDQGALDSSEALTPIGSLLAQLPVDVVIGKMLILGSMFSLVEPVLTIAAALSVQSPFTRSAQSSPECAAARRPLESDQGDPFTLFNVFNAWVQVKSERSRNSRKWCRRRGIEEHRLYEMANLRRQFKELLEDHGLLAGAQAAQVGDSYSRLQQRRERRALHQLKRQHEEGAGRRRKVLRLQEEQDGGSSDEDRAGPAPPGASDGVDIQDVKFKLRHDLAQLQAAASSAQDLSREQLALLKLVLGRGLYPQLAVPDAFNSSRKDSDQIFHTQAKQGAVLHPTCVFAGSPEVLHAQELEASNCDGSRDDKDKMSSKHQLLSFVSLLETNKPYLVNCVRIPALQSLLLFSRSLDTNGDCSRLVADGWLELQLADSESAIRLLAASLRLRARWESALDRQLAHQAQQQLEEEEEDTPVSPKEVATLSKELLQFTASKIPYSLRRLTGLEVQNMYVGPQTIPATPHLPGLFGSSTLSPHPTKGGYAVTDFLTYNCLTNDTDLYSDCLRTFWTCPHCGLHAPLTPLERIAHENTCPQAPQDGPPGAEEAALETLQKTSVLQRPYHCEACGKDFLFTPTEVLRHRKQHV [DHX34]”: the “solubility in G1/S (log2)” value in data set [1] is -0.242. The melting temperature in data set [2] (cell cycle stage: G1/S) is 50.1 °C; in data set [2] (cell cycle stage: mitosis), 49.8 °C. In addition, in data set [3], the “solubility change mitosis (log2)” value was -0.0525. Also, the thermal stability score in data set [4] (setting [5]) was determined as 0.188; in data set [4] (cell cycle stage: mitosis), 0.311.
“MPFPFGKSHKSPADIVKNLKESMAVLEKQDISDKKAEKATEEVSKNLVAMKEILYGTNEKEPQTEAVAQLAQELYNSGLLSTLVADLQLIDFEGKKDVAQIFNNILRRQIGTRTPTVEYICTQQNILFMLLKGYESPEIALNCGIMLRECIRHEPLAKIILWSEQFYDFFRYVEMSTFDIASDAFATFKDLLTRHKLLSAEFLEQHYDRFFSEYEKLLHSENYVTKRQSLKLLGELLLDRHNFTIMTKYISKPENLKLMMNLLRDKSRNIQFEAFHVFKVFVANPNKTQPILDILLKNQAKLIEFLSKFQNDRTEDEQFNDEKTYLVKQIRDLKRPAQQEA [CAB39]”: the “solubility in G1/S (log2)” value in data set [1] is 0.0309. Besides, the melting temperature in data set [2] (cell cycle stage: G1/S) was determined as 54.3 °C; in data set [2] (cell cycle stage: mitosis) it was 55.4 °C. Besides, the “solubility change mitosis (log2)” value in data set [3] was -0.178. Besides, the results for the thermal stability score in data set [4] (setting [5]) and in data set [4] (cell cycle stage: mitosis) were 0.362 and 2.14, respectively.
Turning to “MIPVAEFKQFTEQQPAFKVLKPWWDVLAEYLTVAMLMIGVFGCTLQVTQDKIICLPNHELQENLSEAPCQQLLPRGIPEQIGALQEVKGLKNNLDLQQYSFINQLCYETALHWYAKYFPYLVVIHTLIFMVCTSFWFKFPGTSSKIEHFISILGKCFDSPWTTRALSEVSGENQKGPAATERAAATIVAMAGTGPGKAGEGEKEKVLAEPEKVVTEPPVVTLLDKKEGEQAKALFEKVKKFRMHVEEGDILYTMYIRQTVLKVCKFLAILVYNLVYVEKISFLVACRVETSEVTGYASFCCNHTKAHLFSKLAFCYISFVCIYGLTCIYTLYWLFHRPLKEYSFRSVREETGMGDIPDVKNDFAFMLHLIDQYDSLYSKRFAVFLSEVSESRLKQLNLNHEWTPEKLRQKLQRNAAGRLELALCMLPGLPDTVFELSEVESLRLEAICDITFPPGLSQLVHLQELSLLHSPARLPFSLQVFLRDHLKVMRVKCEELREVPLWVFGLRGLEELHLEGLFPQELARAATLESLRELKQLKVLSLRSNAGKVPASVTDVAGHLQRLSLHNDGARLVALNSLKKLAALRELELVACGLERIPHAVFSLGALQELDLKDNHLRSIEEILSFQHCRKLVTLRLWHNQIAYVPEHVRKLRSLEQLYLSYNKLETLPSQLGLCSGLRLLDVSHNGLHSLPPEVGLLQNLQHLALSYNALEALPEELFFCRKLRTLLLGDNQLSQLSPHVGALRALSRLELKGNRLEALPEELGNCGGLKKAGLLVEDTLYQGLPAEVRDKMEEE [LRRC8E]”, in data set [1], the “solubility in G1/S (log2)” value turned out to be 0.0423. Further, the figures for the melting temperature in data set [2] (cell cycle stage: G1/S) and in data set [2] (cell cycle stage: mitosis) were 53.2 °C and 53.1 °C, respectively. For the same sequence, in data set [3], the “solubility change mitosis (log2)” value was -0.0391. Also, the thermal stability score in data set [4] (setting [5]) is -1.17; in data set [4] (cell cycle stage: mitosis), -1.48.
On to “MASYPSGSGKPKAKYPFKKRASLQASTAAPEARGGLGAPPLQSARSLPGPAPCLKHFPLDLRTSMDGKCKEIAEELFTRSLAESELRSAPYEFPEESPIEQLEERRQRLERQISQDVKLEPDILLRAKQDFLKTDSDSDLQLYKEQGEGQGDRSLRERDVLEREFQRVTISGEEKCGVPFTDLLDAAKSVVRALFIREKYMALSLQSFCPTTRRYLQQLAEKPLETRTYEQGPDTPVSADAPVHPPALEQHPYEHCEPSTMPGDLGLGLRMVRGVVHVYTRREPDEHCSEVELPYPDLQEFVADVNVLMALIINGPIKSFCYRRLQYLSSKFQMHVLLNEMKELAAQKKVPHRDFYNIRKVDTHIHASSCMNQKHLLRFIKRAMKRHLEEIVHVEQGREQTLREVFESMNLTAYDLSVDTLDVHADRNTFHRFDKFNAKYNPIGESVLREIFIKTDNRVSGKYFAHIIKEVMSDLEESKYQNAELRLSIYGRSRDEWDKLARWAVMHRVHSPNVRWLVQVPRLFDVYRTKGQLANFQEMLENIFLPLFEATVHPASHPELHLFLEHVDGFDSVDDESKPENHVFNLESPLPEAWVEEDNPPYAYYLYYTFANMAMLNHLRRQRGFHTFVLRPHCGEAGPIHHLVSAFMLAENISHGLLLRKAPVLQYLYYLAQIGIAMSPLSNNSLFLSYHRNPLPEYLSRGLMVSLSTDDPLQFHFTKEPLMEEYSIATQVWKLSSCDMCELARNSVLMSGFSHKVKSHWLGPNYTKEGPEGNDIRRTNVPDIRVGYRYETLCQELALITQAVQSEMLETIPEEAGITMSPGPQ [AMPD2]”, for which the “solubility in G1/S (log2)” value in data set [1] worked out at 0.0591. Besides, the melting temperature in data set [2] (cell cycle stage: G1/S) was determined as 56.2 °C; in data set [2] (cell cycle stage: mitosis) it was 55 °C. Besides, in data set [3], the “solubility change mitosis (log2)” value was -0.181. Also, the thermal stability score was -0.578 in data set [4] (setting [5]) and -2.37 in data set [4] (cell cycle stage: mitosis).
Regarding “MAGMVDFQDEEQVKSFLENMEVECNYHCYHEKDPDGCYRLVDYLEGIRKNFDEAAKVLKFNCEENQHSDSCYKLGAYYVTGKGGLTQDLKAAARCFLMACEKPGKKSIAACHNVGLLAHDGQVNEDGQPDLGKARDYYTRACDGGYTSSCFNLSAMFLQGAPGFPKDMDLACKYSMKACDLGHIWACANASRMYKLGDGVDKDEAKAEVLKNRAQQLHKEQQKGVQPLTFG [COA7]”, the “solubility in G1/S (log2)” value in data set [1] came out at 0.586. Besides, the melting temperature came to 52.9 °C in data set [2] (cell cycle stage: G1/S) and 52.7 °C in data set [2] (cell cycle stage: mitosis). Moreover, the “solubility change mitosis (log2)” value in data set [3] worked out at 0.0461. Also, the thermal stability score in data set [4] (setting [5]) is -1.59; in data set [4] (cell cycle stage: mitosis), -1.97.
